Data as given in a protein production outcome set (Wang et al. 2014).

test: label from the status in PepcDB records

Sequence	protein production
MSLISIFIPEILLVIMGFIVLAVGMFIQSGKASAAISFITLIAALLSVFFIPYDSSYGITVNKFSVYFSAVLIISALFISLPMYRYVKKRPEVFYASLIFSVIGMVIVAMTWNLVIAFVAFESVSIMTYIMSAYGGKQRNLEATIKYFFTGTIATTFIILGIGFYFFSVHTFSLSPVLNGSSISYYSGTKPEFLLALLFLLIGFGFKLAIFPMHQWAIDAYDGTENGVSAYLSTGTKIMAFVLVLKIFLVGFQSFPTPVYYMFTIIAIITMTYANVAALSQMNVKRLLAYSSVAQAGYMILVISVVSYVGLGSARSVSLAIAAGMFYALVYVFMKGGSFIAMNMVKEDNITFENISGLGKKSPYVAASFSILLLSLAGIPLTGGFLAKYFLFLSVIDSGLWWLAIIAIINSAISVFYYMKVMRYLFWEEPKGEFSTDMGNKAAVIVSAAIVVFLGVFYVLFPVLVGISSQIVG	failed
MSLIVVTGGAGFIGSHVVDKLSESNEIVVIDNLSSGNEEFVNEAARLVKADLAADDIKDYLKGAEEVWHIAANPDVRIGAENPDEIYRNNVLATYRLLEAMRKAGVSRIVFTSTSTVYGEAKVIPTPEDYPTHPISLYGASKLACEALIESYCHTFDMQAWIYRFANVIGRRSTHGVIYDFIMKLKRNPEELEILGNGEQNKSYIYISDCVDAMLFGLRGDERVNIFNIGSEDQIKVKRIAEIVCEELGLSPRFRFTGGDRGWKGDVPVMLLSIEKLKRLGWKPRYNSEEAVRMAVRDLVEDLDEEGHHHHHH	not failed
MSLIYQIAKEFDFCYGHRVWSQELNPDFSLDPCLSCRHLHGHQGKVIVHLESRELQRGMVTDFAHLNWFKRFIDEVLDHRFIIDIDDPLFPTLLPHFADKSALVWMEEGYARVDFERIKGESSPILELYESFVVVRFVPTSESIASWLLELLRSRIQPLGVKVSSVEFLETPKSRARVYNEGHHHHHH	not failed
MSLKDKKILIVEDSKFQAKTIANILNKYGYTVEIALTGEAAVEKVSGGWYPDLILMDIELGEGMDGVQTALAIQQISELPVVFLTAHTEPAVVEKIRSVTAYGYVMKSATEQVLITIVEMALRLYEANVHANEGHHHHHH	not failed
MSLKFENTGLENQTVELSRLDDIMERLGFVRAAQWDYERVTYDRKYVVKEGTYYLRVQGYAIEGNVDSRYALIKLLTPIMGKHYYPHGVEYGDDEHFPSSLVSQCQNVLAQVKSELEKIKEEGHHHHHH	not failed
MSLKFQKLSGLVLCFLIALPAWFLGQSFPLVGAPVFAIFLGMLLAIFYKNREHTEAGIAFTSKYILQFAVVLLGFGLNLSQVLTVGKTSLPIIVATISSSLLLAFLLQKWFKLDVNTATLVGVGSSICGGSAIAATAPVIQADGDEIAQSISVIFLFNILAALIFPTLGDMIGLSNHGFALFAGTAVNDTSSVTATAAAWDGLHHSNTLDGATIVKLTRTLAIIPITLGLSFYQVYKTKKVGKNQQHTVKLKKVFPMFILYFILASIITTILTALGVNPIFFTPLKTLSKFCIVMAMGAIGLNTNIVKLVKTGGQAIVLGASCWIVITLVSLGMQHLLGIW	failed
MSLKKALFLILDQYADWEGVYLASALNQREDWSVHTVSLDPIVSSIGGFKTSVDYIIGLEPANFNLLVMIGGDSWSNDNKKLLHFVKTAFQKNIPIAAICGAVDFLAKNGLLNNHSHTGNFVYLWKDYKQYKPISSFVEKQAVRDKNLVTANGTAPIEFTNLILEMIDFDTPENIEKMMYMNRYGFYHFCDKYGNPFVEGHHHHHH	not failed
MSLKKKIAVVTGATGGMGIEIVKDLSRDHIVYALGRNPEHLAALAEIEGVEPIESDIVKEVLEEGGVDKLKNLDHVDTLVHAAAVARDTTIEAGSVAEWHAHLDLNVIVPAELSRQLLPALRAASGCVIYINSGAGNGPHPGNTIYAASKHALRGLADAFRKEEANNGIRVSTVSPGPTNTPMLQGLMDSQGTNFRPEIYIEPKEIANAIRFVIDAGETTQITNVDVRPRIELADRKEGHHHHHH	not failed
MSLKLIGMLDSPYVRRVAISLKSLGLPFEHHSLSVFSTFEQFKAINPVVKAPTLVCEGGEVLMDSSLIIDYLETLAGPQRSLMPTALPQRLRELRLVGLALAACEKSVQIVYERNLRPAEKQHGPWLERVGGQLQAAYGELEQELQKQPLPRDGSLGQAGISLAVAWSFSQMMVADQFNPGQFPAVRGFAEYAEQLPVFLATPATEGHHHHHH	not failed
MSLKTGRSNIIAFIVPDQNPFFTEVLTEISHECQKHHLHVAVASSEENEDKQQDLIETFVSQNVSAIILVPVKSKFQMKREWLKIPIMTLDRELESTSLPSITVDNEEAAYIATKRVLESTCKEVGLLLANPNISTTIGRKNGYNKAISEFDLNVNPSLIHYSDQQLGTNAQIYSGYEATKTLLSKGIKGIVATNHLLLLGALQAIKESEKEIKKDVIIVGFDDSYWNEIYTPKLTVISQPVKEMGQVAAKMIYKLIKGKDVTSIKLSTKLIIRESCSFNEGHHHHHH	not failed
MSLKYFKRLSDRERAIFEAGITLGAIYHQFCGTPVSPGTAEEVAKCIERAALLQPCVIDARVEVDVSSEDTDNYGGYTEVSGRNLRVTIVTRCGEWEAVGKLEFIEELNYPLMWVEEIRRVEQEGHHHHHH	not failed
MSLLEKDINLKIFKGNLIFTKTSDKFTIMKDSYIVVIDGKIASVSSNLPDKYKGNPIIDFRNNIIIPGMNDLHAHASQYKNLGIGMDKELLPWLNNYTFPEEAKFLNVDYAKKTYGRLIKDLIKNGTTRVALFATLHKDSTIELFNMLIKSGIGAYVGKVNMDYNCPDYLTENYITSLNDTEEIILKYKDKSNIVKPIITPRFVPSCSNELMDGLGKLSYKYRLPVQSHLSENLDEIAVVKSLHKKSNFYGEVYDKFGLFGNTPTLMAHCIHSSKEEINLIKRNNVTIVHCPTSNFNLGSGMMPVRKYLNLGINVVLGSDISAGHTCSLFKVIAYAIQNSKIKWQESGKKDMFLSTSEAFYMATKKGGSFFGKVGSFEEGYDFDALVINDSNLYPEDYDLTERLERFIYLGDDRNIMKRYVCGNEIFGPKFEGHHHHHH	not failed
MSLLFLAMAPKPKPWVQTEGPEKKKGRQAGREEDPFRSTAEALKAIPAEKRIIRVDPTCPLSSNPGTQVYEDYNCTLNQTNIENNNNKFYIIQLLQDSNRFFTCWNRWGRVGEVGQSKINHFTRLEDAKKDFEKKFREKTKNNWAERDHFVSHPGKYTLIEVQAEDEAQEAVVKVDRGPVRTVTKRVQPCSLDPATQKLITNIFSKEMFKNTMALMDLDVKKMPLGKLSKQQIARGFEALEALEEALKGPTDGGQSLEELSSHFYTVIPHNFGHSQPPPINSPELLQAKKDMLLVLADIELAQALQAVSEQEKTVEEVPHPLDRDYQLLKCQLQLLDSGAPEYKVIQTYLEQTGSNHRCPTLQHIWKVNQEGEEDRFQAHSKLGNRKLLWHGTNMAVVAAILTSGLRIMPHSGGRVGKGIYFASENSKSAGYVIGMKCGAHHVGYMFLGEVALGREHHINTDNPSLKSPPPGFDSVIARGHTEPDPTQDTELELDGQQVVVPQGQPVPCPEFSSSTFSQSEYLIYQESQCRLRYLLEVHL	not failed
MSLNLTIGTSKFNPPFEVWSGNNSSLYGFDIDLMQEICRRLHATCTFEAYIFDDLFPALKNREVDLVIASMIITDERKKHFIFSLPYMESNSQYITTVDSKISTFDDLHGKKIGVRKGTPYARQVLSENRNNQVIFYELIQDMLLGLSNNQVDASLMDYEAAKYWMASEPYAYKLIGKKYKLIGKKISIGEGYSIMANPDQFVLIKKINKILLEMEADGTYLRLYSEYFEGHHHHHH	not failed
MSLNMFWFLPTHGDGHYLGTEEGSRPVDHGYLQQIAQAADRLGYTGVLIPTGRSCEDAWLVAASMIPVTQRLKFLVALRPSVTSPTVAARQAATLDRLSNGRALFNLVTGSDPQELAGDGVFLDHSERYEASAEFTQVWRRLLQRETVDFNGKHIHVRGAKLLFPAIQQPYPPLYFGGSSDVAQELAAEQVDLYLTWGEPPELVKEKIEQVRAKAAAHGRKIRFGIRLHVIVRETNDEAWQAAERLISHLDDETIAKAQAAFARTDSVGQQRMAALHNGKRDNLEISPNLWAGVGLVRGGAGTALVGDGPTVAARINEYAALGIDSFVLSGYPHLEEAYRVGELLFPLLDVAIPEIPQPQPLNPQGEAVANDFIPRKVAQS	not failed
MSLNTSIYGLIGEKLGHSHSSYIHKLIFEKVGIKGIYNLFEVPKEKLKESVDTFKIIKCGGLNVTIPYKVEVMKELYEISEKARKIGAVNTLKFSREGISGFNTDYIGFGKMLSKFRVEIKNNICVVLGSGGAARAVLQYLKDNFAKDIYVVTRNPEKTSEIYGEFKVISYDELSNLKGDVIINCTPKGMYPKEGESPVDKEVVAKFSSAVDLIYNPVETLFLKYARESGVKAVNGLYMLVSQAAASEEIWNDISIDEIIVDEIFEVLEEKIKSEGHHHHHH	not failed
MSLNYEESNLIVFGVGFDGTTSNRPGARFASSSMRKEFYGLETYSPFLDLDLEDYNICDYGDLEISVGSTEQVLKEIYQETYKIVRDSKVPFMIGGEHLVTLPAFKAVHEKYNDIYVIHFDAHTDLREEYNNSKNSHATVIKRIWDIVGDNKIFQFGIRSGTKEEFKFATEEKHTYMEIGGIDTFENIVNMLNGKNIYLTIDLDVLDASVFPGTGTPEPGGVNYREFQEIFKIIKNSNINIVGCDIVELSPDYDTTGVSTVIACKILRELCLIISDKIKEGHHHHHH	not failed
MSLPAFVEALLTPAAYPHAVTTPIQLLQTHISYVFLTGDYAYKVKKPADFGFLNFTTLERRLFYCQEELRLNRRLAPDLYLAVVPIVAVGDRYCVAHPQDLPAGAEVIEYAVQMRQFDQSQLFSHLFAANQVTPHLIESLGKELAHFHRCAATSPRISEFGSPRAIAQVINNCHALAAQFVGRCQSPEQYAAIQAFTDDFLSRRQEWFVRRQAGGKIRECHGDLHLNNICLYNGKVQIFDCIEFNEEFRNIDGIYDAAFLLMDLEFRRRGDLANLFLNTYLEWSGDYEGAVLLPLYLCVRAYIRGNVNALALNDPAISGAEKAQIQATAAAYYGAAYRYTQPRQAKLYMMCGLSGAGKSTRGRRLAQAEQAIQIRSDAVRKHLAHLPLDRRSTDFPEVDLYSDAMTEKTYDQLLAYAELLLPQGQTVILDAKYDRVALRQPVIALAKKLHVPLEIHFCSAPPEELHRRLSARQGDIAEATPDLIATQMASFEPFLPEEEPYVRHVCD	failed
MSLRIAIVGAGALGLYYGALLQRSGEDVHFLLRRDYEAIAGNGLKVFSINGDFTLPHVKGYRAPEEIGPMDLVLVGLKTFANSRYEELIRPLVEEGTQILTLQNGLGNEEALATLFGAERIIGGVAFLCSNRGEPGEVHHLGAGRIILGEFLPRDTGRIEELAAMFRQAGVDCRTTDDLKRARWEKLVWNIPFNGLCALLQQPVNLILARDVSRKLVRGIMLEVIAGANAQGLATFIADGYVDDMLEFTDAMGEYKPSMEIDREEGRPLEIAAIFRTPLAYGAREGIAMPRVEMLATLLEQATGEGHHHHHH	not failed
MSLRKQSWLWMLLVILSETSATSTLKMFDNSQGMTKAALLAIIILLYCVCYYSLSKAVRHLPVGLAYATWSGTGILLVSTLSIIFYGQHPDIPAIVGMIVIATGIMIMNLFSKMGVDEQPEKLDSSNQSQPLETKIIH	failed
MSLRRLLAVFAVVGMVVIAGCAGGIDNGEPATSGVTEQATTTVATTETAAPTGELVVHQLNVGQGSSTLVVGPDGETLLIDTGDWTDDGEDVIAYLESQGVTRIDHLVTSHPDADHIGGHAAVIEHFETNGDGVGAVYDPGIASSSATYEEYLDAVEAHNVPLYRTQAGDSIPMSGATAQILAPPEGYLANEDRNENSIVVHVQFGASSFLLPGDGETASEEYLVDTYGDRLNSTVLVVGHHGSRSSTSAAFLEAVSPRVAVISSAYESQYGHPHEAVLERLAARSIPTYWTATHGTITFTSNGSAVTVATQQDAPTTATELRSGDPVEPGTGGGLVDRLVIPTAGSGTTPITDPDGTTEPAETTSTSTAGRLDLVEIHADAAGDDAENLNGEYITVEHTGASSLDLSGWTLADAAGHSYTIPEGTVLEPGDQLTIYTGSGTDTATELYWGQSSPVWNNGGDTISLRDATGTTVIEETY	failed
